Reference: article PMC12816604, “Structural basis of double-stranded RNA recognition by the J2 monoclonal antibody”

How the values were obtained:
[1] = test system: J2 IgG WT, PDB:9OJV_1+PDB:9OJV_2; test: FP; details: BLI: 25 mM Tris-HCl pH 7.5, 100-400 mM KCl (per row), 2 mM MgCl2, 25 C, IgG immobilized on Protein A; FP: 25 mM Tris-HCl pH 7.5, 100 mM KCl, 2 mM MgCl2, 21 C
[2] = test system: J2 IgG WT, PDB:9OJV_1+PDB:9OJV_2; test: BLI steady state; details: BLI: 25 mM Tris-HCl pH 7.5, 100-400 mM KCl (per row), 2 mM MgCl2, 25 C, IgG immobilized on Protein A, FP: 25 mM Tris-HCl pH 7.5, 100 mM KCl, 2 mM MgCl2, 21 C
[3] = test system: J2 IgG WT, PDB:9OJV_1+PDB:9OJV_2; test: FP competition; details: vs 3'-FAM VA-I RNA; BLI: 25 mM Tris-HCl pH 7.5, 100-400 mM KCl (per row), 2 mM MgCl2, 25 C, IgG immobilized on Protein A; FP: 25 mM Tris-HCl pH 7.5, 100 mM KCl, 2 mM MgCl2, 21 C
[4] = target: T1, J2 IgG heavy chain (HC-TEV-His8);J2 IgG light chain (Mus musculus;Mus musculus, UniProt ; ;, |); test: BLI; 100 mM KCl; BLI: 25 mM Tris-HCl pH 7.5, 2 mM MgCl2, KCl 100 mM (6-20 bp and mutants), 200 mM (30 bp) or 400 mM (40, 50 bp), 25 C; IgG immobilised on Protein A probes; details: protein: recombinant;recombinant; tags: His8 (C-term);; chain copies: 2;2; blunt
T1 sequence (chain, as listed by the source |, chain 1 of 2): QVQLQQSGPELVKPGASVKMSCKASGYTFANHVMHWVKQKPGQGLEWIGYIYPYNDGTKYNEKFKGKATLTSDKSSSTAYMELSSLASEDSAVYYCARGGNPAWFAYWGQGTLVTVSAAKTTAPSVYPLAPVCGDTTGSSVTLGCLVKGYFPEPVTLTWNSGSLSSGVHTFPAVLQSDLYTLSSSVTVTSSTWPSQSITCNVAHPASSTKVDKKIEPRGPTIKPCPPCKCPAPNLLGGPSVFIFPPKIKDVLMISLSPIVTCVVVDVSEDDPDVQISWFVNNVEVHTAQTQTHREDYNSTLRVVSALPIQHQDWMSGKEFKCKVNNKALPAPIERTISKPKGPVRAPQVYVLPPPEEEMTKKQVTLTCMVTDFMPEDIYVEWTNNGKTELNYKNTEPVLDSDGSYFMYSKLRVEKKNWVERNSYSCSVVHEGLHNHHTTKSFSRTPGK
T1 sequence (chain, as listed by the source |, chain 2 of 2): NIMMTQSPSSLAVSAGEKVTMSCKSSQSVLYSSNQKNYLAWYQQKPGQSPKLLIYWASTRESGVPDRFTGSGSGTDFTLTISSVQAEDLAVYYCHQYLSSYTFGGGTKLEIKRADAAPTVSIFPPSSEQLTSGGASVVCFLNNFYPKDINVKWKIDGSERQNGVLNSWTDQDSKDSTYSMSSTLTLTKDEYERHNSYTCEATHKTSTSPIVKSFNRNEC

[5] = target: T1, J2 IgG heavy chain (HC-TEV-His8);J2 IgG …; test: BLI; 200 mM KCl; BLI: 25 mM Tris-HCl pH 7.5, 2 mM MgCl2, KCl 100 mM (6-20 bp and mutants), 200 mM (30 bp) or 400 mM (40, 50 bp), 25 C; IgG immobilised on Protein A probes; details: protein: recombinant;recombinant, tags: His8 (C-term);, chain copies: 2;2
[6] = target: T1, J2 IgG heavy chain (HC-TEV-His8);J2 IgG …; test: BLI; 400 mM KCl; BLI: 25 mM Tris-HCl pH 7.5, 2 mM MgCl2, KCl 100 mM (6-20 bp and mutants), 200 mM (30 bp) or 400 mM (40, 50 bp), 25 C; IgG immobilised on Protein A probes; details: protein: recombinant;recombinant, tags: His8 (C-term);, chain copies: 2;2

Q: 3'-FAM Adenovirus VA-I RNA was tested. Which Kd [1] did it give?
A: 32 nM

Q: “GUUGUAAAGAAAUAUAACAGGCUUGUACCA / UGGUACAAGCCUGUUAUAUUUCUUUACAAC [30-bp dsRNA]” was tested. Which Kd ([2]; 200 mM KCl, kinetic Kd 37 ± 7 nM) did it give?
A: 47 nM

Q: How did the Kd ([2]; 100 mM KCl, kinetic Kd 1400 ± 800 nM) turn out when “GUUGUAAAGAAGGU / ACCUUCUUUACAAC [14-bp dsRNA]” was run?
A: 2100 nM

Q: For “GUUGUAAAGAAAUAUAACAGGCUUGUACCAUUGAUGGAAA / UUUCCAUCAAUGGUACAAGCCUGUUAUAUUUCUUUACAAC [40-bp dsRNA]”, which Kd ([2]; 400 mM KCl, kinetic Kd 33 ± 6 nM) is on record?
A: 80 nM

Q: What does the source list for “GUUGUAAAGAAAUAUAACAGGCUUGUACCAUUGAUGGAAAAGAACAACGU / ACGUUGUUCUUUUCCAUCAAUGGUACAAGCCUGUUAUAUUUCUUUACAAC [50-bp dsRNA]”?
A: IC50 [3]: 17 nM; Kd [2]: 22 nM

B1: 14-bp dsRNA (dsRNA)
RNA 1: GUUGUAAAGAAGGU
RNA 2: ACCUUCUUUACAAC
Q: Which Kd [4] does the source give for B1 here?
A: 2100 ± 600 nM

B2: 30-bp dsRNA 47% GC (dsRNA)
RNA 1: GUUGUCCAGAAGGUCAAUAGCGUACCAAAC
RNA 2: GUUUGGUACGCUAUUGACCUUCUGGACAAC
Q: How did the Kd ([5]; blunt) turn out when B2 was run?
A: 110 ± 20 nM

B3: 40-bp AU-dinucleotide dsRNA (dsRNA)
RNA 1: AUAUAUAUAUAUAUAUAUAUAUAUAUAUAUAUAUAUAUAU
RNA 2: AUAUAUAUAUAUAUAUAUAUAUAUAUAUAUAUAUAUAUAU
Q: For B3, which Kd [6] is on record?
A: 91 ± 11 nM

B4: 40-bp dsRNA (dsRNA)
RNA 1: GUUGUAAAGAAGGUCAAUAUUGUACCAAACUUGAUGGAAA
RNA 2: UUUCCAUCAAGUUUGGUACAAUAUUGACCUUCUUUACAAC
Q: With B4 as the molecule, how does the Kd ([6]; blunt) read?
A: 80 ± 15 nM

B5: 30-bp dsRNA 17% GC (dsRNA)
RNA 1: GUUGUAAAUAAGUUCAAUAUUAUACUAAAU
RNA 2: AUUUAGUAUAAUAUUGAACUUAUUUACAAC
Q: With B5 as the molecule, how does the Kd ([5]; blunt) read?
A: 36 ± 22 nM

B6: 30-bp dsRNA 3% GC (dsRNA)
RNA 1: AUUAUAAAUAAUUUCAAUAUUAUAUUAAAU
RNA 2: AUUUAAUAUAAUAUUGAAAUUAUUUAUAAU
Q: B6 was tested. Which Kd [5] did it give?
A: 220 ± 90 nM

B7: 50-bp dsRNA (dsRNA)
RNA 1: GUUGUAAAGAAGGUCAAUAUUGUACCAAACUUGAUGGAAAAGAACAACGU
RNA 2: ACGUUGUUCUUUUCCAUCAAGUUUGGUACAAUAUUGACCUUCUUUACAAC
Q: B7 was tested. Which Kd ([6]; blunt) did it give?
A: 22 ± 8 nM

B8: 30-bp dsRNA 0% GC (dsRNA)
RNA 1: AUUAUAAAUAAUUUAAAUAUUAUAUUAAAU
RNA 2: AUUUAAUAUAAUAUUUAAAUUAUUUAUAAU
Q: B8 was tested. Which Kd [5] did it give?
A: 290 ± 60 nM

B9: 6-bp dsRNA (dsRNA)
RNA 1: GUUGUA
RNA 2: UACAAC
Q: Does B9 bind [4]?
A: no binding
